The values that follow come from US20200299408A1 (Genentech, published 2020).

Experiment [1] concerns the target T1, single chain human CD3ε-26mer-CD3γ (CD3εγ) (human).
T1 construct: also called human CD3εγ
T1 chain: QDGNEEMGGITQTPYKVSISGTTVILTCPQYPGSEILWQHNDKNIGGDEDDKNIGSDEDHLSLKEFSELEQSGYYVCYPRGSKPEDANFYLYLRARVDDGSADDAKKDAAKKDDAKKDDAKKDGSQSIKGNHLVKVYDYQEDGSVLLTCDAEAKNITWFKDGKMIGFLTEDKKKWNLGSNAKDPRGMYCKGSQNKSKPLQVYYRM
As to the kind of experiment: Biacore single cycle kinetics; KD relative to hu38E4.v1. An excerpt:
(§1) In addition, position 95 in HVR-H3 was also mutated to serine, threonine, or glutamate. Variants with these single point mutations were expressed as Fabs in HEK293 cells and initially screened with a single cycle kinetics method on a Biacore T100. Selected variants were also scaled up and purified for a conventional multi-cycle kinetics method. For single cycle kinetics, Biacore Series S CM5 sensor chips were immobilized with anti-human Fab antibodies (Human Fab capture kit, GE Healthcare). […] For conventional multi-cycle kinetics, human CD3εγ, cyno CD3εγ, or a 27-mer peptide were immobilized on Biacore Series S CM5 sensor chip using the amine coupling kit from Biacore. Serial 3-fold dilutions of each Fab variant were injected at a flow rate of 30 μl/min. Each sample was analyzed with a protocol of 3-minute association and 3-minute dissociation. In both methods, the Biacore chips were regenerated using 10 mM Glycine (pH 1.7). Binding response was corrected by blank subtraction and a 1:1Languir model of simultaneous fitting of kₒₙ and koff was used for kinetics analysis.
(In general: SPR reads the build-up and loss of mass on a sensor chip optically.)

The target in experiment [2] is T1, single chain human CD3ε-26mer-CD3γ …. As to the kind of experiment: Biacore single cycle kinetics: Fab captured by anti-human Fab, human CD3εγ injected (3-250 nM).
Description: as §1

Experiment [3] addresses T2, human CD3 on T cells (human, UniProt P07766 22-207).
T2 construct: whole, on cells; On cells CD3ε stands in the CD3/TCR complex; also called CD3 antigen; CD3ε
As to the kind of experiment: FACS on Jurkat cells (CD3); EC50 table for the curves of FIGS. 21A-21B; source CHO (N297G). How it is done: (§2) Binding affinities for the each of the CD3/CD20 TDBs were tested by Biacore or FACS analysis, as described above for the anti-CD3 antibodies. Briefly, for Biacore binding assays, human CD3εγ was immobilized on Biacore Series S CM5 sensor chip using the amine coupling kit from Biacore and CD3/CD20 TDBs or Fab variants thereof were in the flow through. For FACS binding assays, either Bjab cells (for B cell antigens) or Jurkat cells (for CD3 antigen) were incubated with various concentrations of TDB antibodies at 4° C. for 30 minutes, then cells were washed and incubated with 2nd antibody (anti-huIgG-PE; BD Bioscience) for another 15 minutes, before cells were washed again and ready for FACS analysis.

In experiment [4] the target is T1, single chain human CD3ε-26mer-CD3γ …. As to the kind of experiment: Biacore, human CD3εγ on chip, TDB in flow through. How it is done: as §2
Experiment [5] addresses T2, human CD3 on T cells. As to the kind of experiment: FACS on Jurkat cells (CD3), anti-huIgG-PE; number printed beside the curve without a quantity name, taken as EC50. How it is done:
as §2

Experiment [6] concerns the target T1, single chain human CD3ε-26mer-CD3γ …. As to the kind of experiment: Biacore full (multi-) cycle kinetics: antigen on chip, Fab injected; antigen not named on the sheet, taken as human CD3εγ.
Description: as §1

For experiment [7] the target is unchanged. As to the kind of experiment: Biacore full (multi-) cycle kinetics; KD relative to hu38E4.v1.
Description: as §1

Experiment [8] has as its target T2, human CD3 on T cells. As to the kind of experiment: FACS on Jurkat cells (CD3), anti-huIgG-PE; number printed beside the curve without a quantity name, taken as EC50. How it is done:
as §2
This is another data set of the same source.

For the next experiment, the target named is T3, Commercial hCD3eg.
T3 chain 1: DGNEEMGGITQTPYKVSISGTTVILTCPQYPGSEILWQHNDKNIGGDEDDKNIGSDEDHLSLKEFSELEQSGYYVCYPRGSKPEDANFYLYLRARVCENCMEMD
T3 chain 2: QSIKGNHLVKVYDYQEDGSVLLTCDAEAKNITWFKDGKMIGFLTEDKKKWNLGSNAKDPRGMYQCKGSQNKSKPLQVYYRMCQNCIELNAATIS
As to the kind of experiment: mu IgG against commercial hCD3eg; method not stated on the sheet.

The target of experiment [9] is T4, commercial CD3ε (Creative Biomart, Catalog Number CD3E-2194H) (human, UniProt P07766).
T4 construct: commercial recombinant protein; also called commercial CD3E
As to the kind of experiment: binding affinity on commercial CD3ε (Creative Biomart CD3E-2194H); method not stated in the legend.

Residue numbers refer to the chain shown, from its start. Names and notes keep the numbering of the source. Values joined by “and” are separate entries in the source; they are usually repeats but may differ in a detail not shown here. Identical values can stand only once.

B1: hu38E4.v1 H3 mutant D101A (Fab, V domains shown)
VH: EVQLVQSGAEVKKPGASVKVSCKASGFTFTSYYIHWVRQAPGQGLEWIGWIYPENDNTKYNEKFKDRVTITADTSTSTAYLELSSLRSEDTAVYYCARDGYSRYYFAYWGQGTLVTVSS
VL: DIVMTQSPDSLAVSLGERATINCKSSQSLLNSRTRKNYLAWYQQKPGQSPKLLIYWTSTRKSGVPDRFSGSGSGTDFTLTISSLQAEDVAVYYCKQSFILRTFGQGTKVEIK
notes: copies: 1 + 1
By Kd is commonly meant a measure of binding affinity in units of concentration. The term koff denotes the first-order rate constant of dissociation. A higher koff goes with a short-lived complex. A word on the kon: it is the rate constant with which the complex forms. A higher kon goes with faster complex formation. Take B1: the “ratio (fold)” value in experiment [1] was determined as 7.2 fold. Further, in experiment [2], the Kd was determined as 24.1 nM, the dissociation rate constant (koff) is 0.00342 s⁻¹ and the kon was 142000 M⁻¹ s⁻¹.

B2: KH CD20 2H7v16/38E4v1 (bispecific antibody)
anti-CD20 arm heavy chain: EVQLVESGGGLVQPGGSLRLSCAASGYTFTSYNMHWVRQAPGKGLEWVGAIYPGNGDTSYNQKFKGRFTISVDKSKNTLYLQMNSLRAEDTAVYYCARVVYYSNSYWYFDVWGQGTLVTVSS
anti-CD20 arm light chain: DIQMTQSPSSLSASVGDRVTITCRASSSVSYMHWYQQKPGKAPKPLIYAPSNLASGVPSRFSGSGSGTDFTLTISSLQPEDFATYYCQQWSFNPPTFGQGTKVEIK
anti-CD3 arm heavy chain: B1 VH with A107D
anti-CD3 arm light chain: B1 VL
notes: also called 38E4v1 CHO
By EC50 is commonly meant the concentration that produces a half-maximal response. A lower EC50 goes with higher potency in that assay. For B2, the EC50 with human CD3 on T cells [3] was 0.24 µg/mL and ~1.6 nM. In experiment [4], the Kd was 1.28 nM and 1.3 nM; the koff was found to be 0.00515 s⁻¹; the kon is 4.03e+06 M⁻¹ s⁻¹. Further, the EC50 in the experiment with human CD3 on T cells [5] was 0.243 µg/mL and 1.6 nM.

B3: hu38E4.v1 H3 mutant S98A (Fab, V domains shown)
VH: B1 VH with S102A, A107D
VL: B1 VL
notes: copies: 1 + 1
B3: the “ratio (fold)” value in experiment [1] is 1.1 fold. In experiment [2], this molecule had a Kd of 3.8 nM, a koff of 0.00147 s⁻¹ and a kon of 385000 M⁻¹ s⁻¹.

B4: hu38E4.v1 L3 mutant Q90A (Fab, V domains shown)
VH: B1 VH with A107D
VL: B1 VL with Q96A
notes: copies: 1 + 1
In experiment [6], B4 had a Kd of 23.8 nM, a koff of 0.00422 s⁻¹ and a kon of 178000 M⁻¹ s⁻¹. In addition, the “ratio (fold)” value in experiment [7] was 29.9 fold.

B5: KH CD20 2H7v16/hu38E4c (bispecific antibody)
anti-CD20 arm heavy chain: B2 anti-CD20 arm heavy chain
anti-CD20 arm light chain: B2 anti-CD20 arm light chain
anti-CD3 arm heavy chain: B1 VH with G100S, R103N, A107D
anti-CD3 arm light chain: B1 VL with K95T
notes: also called CD3/CD20 TDB 2H7v16/38E4c
Take B5: in the experiment with human CD3 on T cells [8], a half-maximal response (EC50) required 1.01 µg/mL.

B6: hu38E4.v1 L3 mutant K89A (Fab, V domains shown)
VH: B1 VH with A107D
VL: B1 VL with K95A
notes: copies: 1 + 1
As to B6, in experiment [1], the “ratio (fold)” value came to 0.7 fold. In experiment [2], this molecule returned a Kd of 2.4 nM, a koff of 0.00102 s⁻¹ and a kon of 428000 M⁻¹ s⁻¹.

B7: hu38E4.v1 H3 mutant Y102A (Fab, V domains shown)
VH: B1 VH with A107D, Y108A
VL: B1 VL
notes: copies: 1 + 1
As to B7, the “ratio (fold)” value in experiment [1] stood at 1.2 fold. Further, in experiment [2], the Kd came out at 4.1 nM, the koff was determined as 0.00132 s⁻¹ and the kon is 322000 M⁻¹ s⁻¹.

B8: 30A1 (antibody, IgG1, V domains shown)
VH: QVQLKESGPGLVAPSQSLSITCTVSGFSLTNYAIHWVRQPPGKGLDWLGVIWAGGNTKYNSALMSRLSFSKDNSKSQVFLEINSLQTDDTAMYYCAREDSSGYVALDYWGQGTSVTVSS
VL: NIVMTQSPSSLAVSAGEKVTMSCKSSQSLLSGRTRKNYLAWYQQKPGQSPKLLIYWASTRESGVPDRFTGSGSGTDFTLTISSVQAEDLAVYYCKQSYYLLTFGAGTKLELK
notes: mouse hybridoma clone
The molecule B8 displayed an equilibrium dissociation constant (Kd) in the experiment with Commercial hCD3eg of 0.4 nM.

B9: 13A3 (antibody, IgG2b, V domains shown)
VH: EVQLQQSGPELVKPGASVRISCKASGYTFTSYYIHWMKQRPGQGLEWIGWIYPGNVNTKYNEKFKGKATLTADNSSSTANMQLSSLTSEDSAVYFCARNHDYYFDYWGQGTTLTVSS
VL: B8 VL with N1D, M4L, S31N, G32S, Y99I, L101R, A105G, L111I
notes: mouse hybridoma clone; also called 13A3 (xCD3)
As for B9, the Kd in the experiment with Commercial hCD3eg was found to be 0.6 nM.

B10: 72H6 (antibody, IgG2a, V domains shown)
VH: EVQLQQSGPELVKPGASVKISCKASGYSFTSYYIHWVKQRPGQGLEWIGWIFPGSDNTKYNEKFKGKATLTADTSSSTAYMQLSSLTSEDSAVYFCARNGNYAMDYWGQGTSVTVSS
VL: B8 VL with N1E, M4L, T5S, S31N, G32S, Y99T, L101R, A105G, L111I
notes: mouse hybridoma clone; also called 72H6 (xCD3)
The molecule B10 yielded a Kd with Commercial hCD3eg of 2.5 nM.

B11: 19B1 (antibody, IgG2b, V domains shown)
VH: B9 VH
VL: B8 VL with N1G, S31N, G32S, Y99I, L101R, A105G, L111I
notes: mouse hybridoma clone; also called 19B1 (xCD3)
For B11, the Kd with Commercial hCD3eg stood at 0.7 nM.

B12: murine SP34 (antibody, V domains shown)
VH: EVQLVESGGGLVQPKGSLKLSCAASGFTFNTYAMNWVRQAPGKGLEWVARIRSKYNNYATYYADSVKDRFTISRDDSQSILYLQMNNLKTEDTAMYYCVRHGNFGNSYVSWFAYWGQGTLVTVSS
VL: QAVVTQESALTTSPGETVTLTCRSSTGAVTTSNYANWVQEKPDHLFTGLIGGTNKRAPGVPARFSGSLIGDKAALTITGAQTEDEAIYFCALWYSNLWVFGGGTKLTVL
In turn, B12 registered a Kd in [9] of 7 nM.

B13: humanized SP34 variant: λ7 graft + F36V + T46G + Y49G / VH3 graft + N73D + T93V (antibody, V domains shown)
VH: B12 VH with K15G, K19R, A49G, Q78K, S79N, I80T, N87S, K89R, T90A, M95V
VL: EAVVTQEPSLTVSPGGTVTLTCRSSTGAVTTSNYANWVQQKPGQAPRGLIGGTNKRAPWTPARFSGSLLGGKAALTLSGAQPEDEAEYYCALWYSNLWVFGGGTKLTVL
In turn, B13 returned a Kd in [9] of 3.5 nM.

B14: humanized SP34 variant: λ7 graft + F36V + T46G + Y49G / VH3 graft + T93V (antibody, V domains shown)
VH: EVQLVESGGGLVQPGGSLRLSCAASGFTFNTYAMNWVRQAPGKGLEWVGRIRSKYNNYATYYADSVKDRFTISRDNSKNTLYLQMNSLRAEDTAVYYCVRHGNFGNSYVSWFAYWGQGTLVTVSS
VL: B13 VL
B14 showed a Kd in experiment [9] of 15.9 nM.

B15: humanized SP34 variant: λ7 graft + F36V + Q38E + A43L + P44F + T46G + Y49G + T58V + Y87F / VH3 graft G49A + N73D + T93V (antibody, V domains shown)
VH: B14 VH with G49A, N76D
VL: B13 VL with Q40E, A45L, P46F, T60V, Y89F
As for B15, in [9], the Kd came to 8 nM.

B16: humanized SP34 variant: λ7 graft + F36V + Q38E + A43L + P44F + T46G + Y49G + T58V + Y87F / VH3 graft + G49A + T93V (antibody, V domains shown)
VH: B14 VH with G49A
VL: B13 VL with Q40E, A45L, P46F, T60V, Y89F
In experiment [9], B16 came in with a dissociation constant Kd of 21 nM.

B17: humanized SP34 variant: λ7 graft + F36V + Q38E + A43L + P44F + T46G + Y49G + T58V + Y87F / VH3 graft + N73D + T93V (antibody, V domains shown)
VH: B14 VH with N76D
VL: B13 VL with Q40E, A45L, P46F, T60V, Y89F
B17 registered a Kd in experiment [9] of 3.1 nM.

B18: humanized SP34 variant: λ7 graft + F36V + T46G + Y49G / VH3 graft G49A + N73D + T93V (antibody, V domains shown)
VH: B14 VH with G49A, N76D
VL: B13 VL
Regarding B18, binding in [9] was characterised by a dissociation constant (Kd) of 14.5 nM.
